Here are results for 23 substances from patent publication US20130123460A1, “PEPTIDE FOR IMPROVING BIOSTABILITY OF BIOACTIVE SUBSTANCE, AND BIOACTIVE SUBSTANCE HAVING IMPROVED BIOSTABILITY” (priority 2010, published 2013).

Chain of endogenous SSTR 5 of MIN 6 cells (mouse) (O08858 whole entry): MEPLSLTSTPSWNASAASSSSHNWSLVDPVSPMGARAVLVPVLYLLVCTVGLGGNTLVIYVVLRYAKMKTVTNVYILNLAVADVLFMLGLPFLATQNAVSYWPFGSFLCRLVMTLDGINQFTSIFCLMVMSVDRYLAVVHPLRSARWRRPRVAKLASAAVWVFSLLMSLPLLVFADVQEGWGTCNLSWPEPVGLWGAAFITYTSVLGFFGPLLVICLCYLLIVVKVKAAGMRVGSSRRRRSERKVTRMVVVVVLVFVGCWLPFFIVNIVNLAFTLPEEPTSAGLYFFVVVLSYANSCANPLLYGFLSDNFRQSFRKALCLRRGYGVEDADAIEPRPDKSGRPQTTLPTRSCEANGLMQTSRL

The target of one assay is endogenous VIP receptor of SUP-T1 cells (human). Description: cell-based or functional assay.
Substance VIP(1-28)-GAm(32-44)-NH2 (peptide) displayed a cAMP Productivity in SUP-T1 Cells, Activity Intensity (%) relative to native VIP of 85%.

Consider VIP(1-28)-GAm(28-44)-NH2 (peptide), for which the cAMP Productivity in SUP-T1 Cells, Activity Intensity (%) relative to native VIP was determined as 67%.

As to VIP(1-28)-GAm(37-44)-NH2 (peptide), the cAMP Productivity in SUP-T1 Cells, Activity Intensity (%) relative to native VIP was 81%.

Another assay has as its target endogenous SSTR 5 of MIN 6 cells (mouse) (UniProt O08858). Kind of assay: cell-based or functional assay.
Turning to SRIF(1-14)-NH2 (peptide), the Suppressibility of Insulin Secretion in MIN 6 Cells, Suppression rate of insulin secretion (%) relative to native SRIF amounted to 100%.

For another assay, the target named is endogenous GLP-1 receptor of MIN 6 cells (mouse) (UniProt O35659). Description: cell-based or functional assay.
With “[Ser8]-GLP-1(7-35)-GAm(30-42)-NH2 (peptide)”, the Insulin Secretion Capacity of GLP-1 Peptide Complex in MIN 6 Cells (% of control), at 1000 pM was 85 % of control.

With [Ser8]-GLP-1(7-35)-GAm(33-44) (peptide), the Insulin Secretion Capacity of GLP-1 Peptide Complex in MIN 6 Cells (% of control), at 1000 pM was 89 % of control.

Take “[Ser8]-GLP-1(7-35)-GAm(33-44)-NH2 (peptide)”: the Insulin Secretion Capacity of GLP-1 Peptide Complex in MIN 6 Cells (% of control), at 1000 pM was 118 % of control.

Consider “[Ser8]-GLP-1(7-35)-GAm(17-46)-NH2 (peptide)”, for which the Insulin Secretion Capacity of GLP-1 Peptide Complex in MIN 6 Cells (% of control), at 1000 pM was 39 % of control and the Insulin Secretion Capacity of GLP-1 Peptide Complex in MIN 6 Cells (EC50 value) is greater than 1000 pM.

For “[Ser8]-GLP-1(7-35)-GAm(28-42)-NH2 (peptide)”, the Insulin Secretion Capacity of GLP-1 Peptide Complex in MIN 6 Cells (% of control), at 1000 pM was 105 % of control.

Regarding “[Ser8]-GLP-1(7-35)-GAm(32-44)-NH2 (peptide)”, the Insulin Secretion Capacity of GLP-1 Peptide Complex in MIN 6 Cells (% of control), at 1000 pM is 109 % of control.

In the case of “[Ser8]-GLP-1(7-35)-GAm(25-46)-NH2 (peptide)”, the Insulin Secretion Capacity of GLP-1 Peptide Complex in MIN 6 Cells (% of control), at 1000 pM is 104 % of control.

Regarding [Ser8]-GLP-1(7-35)-GAm(37-44) (peptide), the Insulin Secretion Capacity of GLP-1 Peptide Complex in MIN 6 Cells (% of control), at 1000 pM is 98 % of control.

Turning to “[Ser8]-GLP-1(7-35)-GAm(37-44)-NH2 (peptide)”, the Insulin Secretion Capacity of GLP-1 Peptide Complex in MIN 6 Cells (% of control), at 1000 pM is 82 % of control.

Regarding [Ser8]-GLP-1(7-35)-GAm(28-44) (peptide), the Insulin Secretion Capacity of GLP-1 Peptide Complex in MIN 6 Cells (% of control), at 1000 pM was 139 % of control.

Consider “[Ser8]-GLP-1(7-35)-GAm(1-46)-NH2 (peptide)”, for which the Insulin Secretion Capacity of GLP-1 Peptide Complex in MIN 6 Cells (% of control), at 1000 pM is 18 % of control and the Insulin Secretion Capacity of GLP-1 Peptide Complex in MIN 6 Cells (EC50 value) is greater than 1000 pM.

Regarding “[Ser8]-GLP-1(7-35)-GAm(27-46)-NH2 (peptide)”, the Insulin Secretion Capacity of GLP-1 Peptide Complex in MIN 6 Cells (% of control), at 1000 pM was 106 % of control.

As to “[Ser8]-GLP-1(7-35)-GAm(22-46)-NH2 (peptide)”, the Insulin Secretion Capacity of GLP-1 Peptide Complex in MIN 6 Cells (% of control), at 1000 pM is 100 % of control.

Take “[Ser8]-GLP-1(7-35)-GAm(38-42)-NH2 (peptide)”: the Insulin Secretion Capacity of GLP-1 Peptide Complex in MIN 6 Cells (% of control), at 1000 pM was 125 % of control and the Insulin Secretion Capacity of GLP-1 Peptide Complex in MIN 6 Cells (EC50 value) turned out to be 500 pM.

Turning to “[Ser8]-GLP-1(7-35)-GAm(21-46)-NH2 (peptide)”, the Insulin Secretion Capacity of GLP-1 Peptide Complex in MIN 6 Cells (% of control), at 1000 pM is 45 % of control.

“[Ser8]-GLP-1(7-35)-GAm(38-44)-NH2 (peptide)”: the Insulin Secretion Capacity of GLP-1 Peptide Complex in MIN 6 Cells (% of control), at 1000 pM was 120 % of control.

For “[Ser8]-GLP-1(7-35)-GAm(28-44)-NH2 (peptide)”, the Insulin Secretion Capacity of GLP-1 Peptide Complex in MIN 6 Cells (% of control), at 1000 pM was 105 % of control.

With “[Ser8]-GLP-1(7-35)-GAm(35-44)-NH2 (peptide)”, the Insulin Secretion Capacity of GLP-1 Peptide Complex in MIN 6 Cells (% of control), at 1000 pM is 115 % of control.

For “[Ser8]-GLP-1(7-35)-GAm(31-44)-NH2 (peptide)”, the Insulin Secretion Capacity of GLP-1 Peptide Complex in MIN 6 Cells (% of control), at 1000 pM was 83 % of control.
